Experimental data taken from publication PMC9654404, “Functional Characterization and Screening of Promiscuous Kinases and Isopentenyl Phosphate Kinases for the Synthesis of DMAPP via a One-Pot Enzymatic Cascade” (International Journal of Molecular Sciences, 2022).

Key:
[1] = substrate: CC(C)=CCO; assay: ADP formation, ADP colorimetric/fluorometric assay kit, Michaelis-Menten fit; type: biochemical, Shigella flexneri; settings: ATP co-substrate, 2 mM MgCl2, 50 mM buffer, optimal conditions (optimum pH 9.0, 55 °C), apparent Km
[2] = substrate: CC(C)=CCOP(=O)(O)O; assay: purified protein; settings: ATP co-substrate, 2 mM MgCl2, 50 mM buffer, DMAP made enzymatically with SfPK, apparent Km
[3] = substrate: CC(C)=CCO; assay: purified protein; settings: ATP co-substrate, 2 mM MgCl2, 50 mM buffer, optimal conditions (optimum pH 7.5, 30 °C), apparent Km, 30.0 °C
[4] = substrate: CC(C)=CCO; assay: ADP formation, ADP colorimetric/fluorometric assay kit, Michaelis-Menten fit; type: biochemical, Escherichia coli; settings: ATP co-substrate, 2 mM MgCl2, 50 mM buffer, optimal conditions (optimum pH 5.5, 50 °C), apparent Km

B1: SfPK (Shigella flexneri promiscuous kinase) (Shigella flexneri) (protein)
chain: SIPPGNDVTTKPDLYYLTNDNAIDSLALLPPPPQIGSIAFLNDQAMYEKGRLLRNTERGKLAAEDANLSSGGVANVFSAAFGSPITAKDSPELHKLLTNMIEDAGDLATRSAKEYYMRIRPFAFYGVSTCNTKEQDTLSRNGSYPSGHTSIGWATALVLSEINPARQDTILKRGYELGDSRVICGYHWQSDVDAARIVGSAIVATLHSNPVFQAQLQKAKDEFANNQKK
[1]
  Km: 16 µM

B2: MtIPK (Methanolobus tindarius isopentenyl phosphate kinase) (Methanolobus tindarius DSM 2278) (protein)
chain: MDNNNITILKIGGSVITDKSADDGTARLSEIERIAAEISGFEGKLIIVHGAGSFGHPQVKRFGLTGKFDHEGSIITHMSVRKLNTMVVETLNSAGINALPVHPMACAISSNSRIKSMFREQIEEMLANGFVPVLHGDMVMDTDLGTSVLSGDQIVPYLAIQMKASRIGIGSAEEGVLDDKGGVIPLINNENFDEIKAYLSGSANTDVTGGMLGKVLELLELSEQSNSTSYIFNAGNTGNISDFLSGKNIGTAIGAGTI
[2]; optimal conditions (optimum pH 7.5, 35 °C), 35.0 °C
  Km: 65 µM

B3: ScPK (Saccharomyces cerevisiae promiscuous kinase) (Saccharomyces cerevisiae S288C) (protein)
chain: MVQESRPGSVRSYSVGYQARSRSSSQRRHSLTRQRSSQRLIRTISIESDVSNITDDDDLRAVNEGVAGVQLDVSETANKGPRRASATDVTDSLGSTSSEYIEIPFVKETLDASLPSDYLKQDILNLIQSLKISKWYNNKKIQPVAQDMNLVKISGAMTNAIFKVEYPKLPSLLLRIYGPNIDNIIDREYELQILARLSLKNIGPSLYGCFVNGRFEQFLENSKTLTKDDIRNWKNSQRIARRMKELHVGVPLLSSERKNGSACWQKINQWLRTIEKVDQWVGDPKNIENSLLCENWSKFMDIVDRYHKWLISQEQGIEQVNKNLIFCHNDAQYGNLLFTAPVMNTPSLYTAPSSTSLTSQSSSLFPSSSNVIVDDIINPPKQEQSQDSKLVVIDFEYAGANPAAYDLANHLSEWMYDYNNAKAPHQCHADRYPDKEQVLNFLYSYVSHLRGGAKEPIDEEVQRLYKSIIQWRPTVQLFWSLWAILQSGKLEKKEASTAITREEIGPNGKKYIIKTEPESPEEDFVENDDEPEAGVSIDTFDYMAYGRDKIAVFWGDLIGLGIITEEECKNFSSFKFLDTSYL
[3]
  Km: 1250 µM

B4: MthIPK (Methanothermobacter thermautotrophicus isopentenyl phosphate kinase) (Methanothermobacter thermautotrophicus str. Delta H) (protein)
chain: MIILKLGGSVITRKDSEEPAIDRDNLERIASEIGNASPSSLMIVHGAGSFGHPFAGEYRIGSEIENEEDLRRRRFGFALTQNWVKKLNSHVCDALLAEGIPAVSMQPSAFIRAHAGRISHADISLIRSYLEEGMVPVVYGDVVLDSDRRLKFSVISGDQLINHFSLRLMPERVILGTDVDGVYTRNPKKHPDARLLDVIGSLDDLESLDGTLNTDVTGGMVGKIRELLLLAEKGVESEIINAAVPGNIERALLGEEVRGTRITGKH
[2]; optimal conditions (optimum pH 7.5, 30 °C), 30.0 °C
  Km: 116 µM

B5: EcPK (Escherichia coli promiscuous kinase) (Escherichia coli K-12) (protein)
chain: MQVDLLGSAQSAHALHLFHQHSPLVHCMTNDVVQTFTANTLLALGASPAMVIETEEASQFAAIASALLINVGTLTQPRAQAMRAAVEQAKSSQTPWTLDPVAVGALDYRRHFCHELLSFKPAAIRGNASEIMALAGIANGGRGVDTTDAAANAIPAAQTLARETGAIVVVTGEMDYVTDGHRIIGIHGGDPLMTKVVGTGCALSAVVAACCALPGDTLENVASACHWMKQAGERAVARSEGPGSFVPHFLDALWQLTQEVQA
[4]
  Km: 930 µM
